Results reported in PMC9481740 (The Journal of Cell Biology, 2022).
Positions count from the first letter of the chain named. Numbers in names are those of the source. Where “and” joins values, the source holds several entries; their conditions need not be identical. Equal values may be shown once.

Legend:
[1] = target: ^mChSpindly^Y26BPA (human) (UniProt Q96EA4); experiment: mass photometry; Refeyn TwoMP; sample diluted to a final 10 nM in Spindly buffer (50 mM Hepes pH 8.0, 250 mM NaCl, 2 mM TCEP); crosslinked samples measured after dilution beside untreated controls
[2] = target: the molecule itself; experiment: as above
[3] = target: T1, mCherry-tagged full-length Spindly (^mChSpindly^FL) (human), Q96EA4; experiment: as above; details: remark: other sources report otherwise
T1 chain: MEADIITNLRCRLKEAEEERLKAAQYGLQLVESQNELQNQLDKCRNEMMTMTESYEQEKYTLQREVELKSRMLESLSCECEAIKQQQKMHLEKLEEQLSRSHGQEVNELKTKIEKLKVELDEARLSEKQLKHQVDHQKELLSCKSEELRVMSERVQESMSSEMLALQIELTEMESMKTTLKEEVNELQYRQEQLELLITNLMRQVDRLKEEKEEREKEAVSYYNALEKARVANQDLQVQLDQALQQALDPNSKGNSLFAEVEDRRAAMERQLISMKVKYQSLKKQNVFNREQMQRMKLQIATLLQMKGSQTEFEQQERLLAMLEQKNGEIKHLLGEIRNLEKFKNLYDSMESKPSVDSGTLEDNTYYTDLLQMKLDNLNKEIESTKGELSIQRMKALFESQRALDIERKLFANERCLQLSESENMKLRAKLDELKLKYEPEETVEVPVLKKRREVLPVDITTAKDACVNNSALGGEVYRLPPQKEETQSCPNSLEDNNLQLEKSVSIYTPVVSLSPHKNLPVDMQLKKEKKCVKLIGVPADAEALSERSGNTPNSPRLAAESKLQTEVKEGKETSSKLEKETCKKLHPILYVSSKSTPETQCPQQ

[4] = target: T2, full-length Spindly without mCherry tag (human), Q96EA4; experiment: as above; details: remark: other sources report otherwise
T2 chain: T1 chain

[5] = target: the molecule itself; experiment: not stated; unpublished observations; dimer-tetramer equilibrium, tetramer prevailing at micromolar concentration
[6] = target: the molecule itself; experiment: crystal structure; Spindly 1-100, Se-SAD, refined to 2.8 Å; Bis-Tris Propane/HCl pH 6.5, 19% PEG3350, 0.2 M potassium thiocyanate
Spindly^250–605 = target: T3, Spindly^250–605 (human, UniProt Q96EA4 250-605); experiment: SEC; Spindly N-terminal and C-terminal fragments mixed, 10 µM each; 4°C, Spindly buffer; fractions on SDS-PAGE; details: both partners purified
T3 construct: also called CC2 and CC3; source: TnAO38 insect cells (baculovirus), purified (HisTrap, Resource Q, Superdex 200)
T3 sequence (looked up): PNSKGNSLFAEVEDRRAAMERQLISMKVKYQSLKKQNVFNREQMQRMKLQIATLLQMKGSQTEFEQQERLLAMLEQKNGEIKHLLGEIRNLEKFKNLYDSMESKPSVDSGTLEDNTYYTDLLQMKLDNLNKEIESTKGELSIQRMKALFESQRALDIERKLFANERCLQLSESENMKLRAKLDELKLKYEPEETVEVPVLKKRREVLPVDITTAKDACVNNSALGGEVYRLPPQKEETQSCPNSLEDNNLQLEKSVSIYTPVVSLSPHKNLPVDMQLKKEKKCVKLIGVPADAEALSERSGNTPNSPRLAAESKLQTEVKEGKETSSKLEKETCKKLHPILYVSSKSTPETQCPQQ

“^mChSpindly^Y26BPA (from UniProt Q96EA4 1-605) (natural protein)” gave a stoichiometry N [1] of 2.

B1: ^mChSpindly^76–605 (domain or fragment, human, UniProt Q96EA4 76-605, looked up)
chain: LSCECEAIKQQQKMHLEKLEEQLSRSHGQEVNELKTKIEKLKVELDEARLSEKQLKHQVDHQKELLSCKSEELRVMSERVQESMSSEMLALQIELTEMESMKTTLKEEVNELQYRQEQLELLITNLMRQVDRLKEEKEEREKEAVSYYNALEKARVANQDLQVQLDQALQQALDPNSKGNSLFAEVEDRRAAMERQLISMKVKYQSLKKQNVFNREQMQRMKLQIATLLQMKGSQTEFEQQERLLAMLEQKNGEIKHLLGEIRNLEKFKNLYDSMESKPSVDSGTLEDNTYYTDLLQMKLDNLNKEIESTKGELSIQRMKALFESQRALDIERKLFANERCLQLSESENMKLRAKLDELKLKYEPEETVEVPVLKKRREVLPVDITTAKDACVNNSALGGEVYRLPPQKEETQSCPNSLEDNNLQLEKSVSIYTPVVSLSPHKNLPVDMQLKKEKKCVKLIGVPADAEALSERSGNTPNSPRLAAESKLQTEVKEGKETSSKLEKETCKKLHPILYVSSKSTPETQCPQQ
notes: source: E. coli BL21 CodonPlus, purified (HisTrap, Resource Q, Superdex 200); not shown: mCherry, N-terminal, kept
With B1 the “stoichiometry N” value [2] was 2.

B2: ^mChSpindly^∆276–306 (natural protein, human, UniProt Q96EA4 1-605, looked up)
chain: MEADIITNLRCRLKEAEEERLKAAQYGLQLVESQNELQNQLDKCRNEMMTMTESYEQEKYTLQREVELKSRMLESLSCECEAIKQQQKMHLEKLEEQLSRSHGQEVNELKTKIEKLKVELDEARLSEKQLKHQVDHQKELLSCKSEELRVMSERVQESMSSEMLALQIELTEMESMKTTLKEEVNELQYRQEQLELLITNLMRQVDRLKEEKEEREKEAVSYYNALEKARVANQDLQVQLDQALQQALDPNSKGNSLFAEVEDRRAAMERQLISMKGSQTEFEQQERLLAMLEQKNGEIKHLLGEIRNLEKFKNLYDSMESKPSVDSGTLEDNTYYTDLLQMKLDNLNKEIESTKGELSIQRMKALFESQRALDIERKLFANERCLQLSESENMKLRAKLDELKLKYEPEETVEVPVLKKRREVLPVDITTAKDACVNNSALGGEVYRLPPQKEETQSCPNSLEDNNLQLEKSVSIYTPVVSLSPHKNLPVDMQLKKEKKCVKLIGVPADAEALSERSGNTPNSPRLAAESKLQTEVKEGKETSSKLEKETCKKLHPILYVSSKSTPETQCPQQ
notes: predominantly dimeric, with a tendency to form tetramers; source: E. coli BL21 CodonPlus, purified (HisTrap, Resource Q, Superdex 200); not shown: mCherry, N-terminal, kept
With B2 the “stoichiometry N” value [2] was 2 and 4.

B3: ^mChSpindly^ΔRV (natural protein, human, UniProt Q96EA4 1-605, looked up)
chain: MEADIITNLRCRLKEAEEERLKAAQYGLQLVESQNELQNQLDKCRNEMMTMTESYEQEKYTLQREVELKSRMLESLSCECEAIKQQQKMHLEKLEEQLSRSHGQEVNELKTKIEKLKVELDEARLSEKQLKHQVDHQKELLSCKSEELRVMSEQESMSSEMLALQIELTEMESMKTTLKEEVNELQYRQEQLELLITNLMRQVDRLKEEKEEREKEAVSYYNALEKARVANQDLQVQLDQALQQALDPNSKGNSLFAEVEDRRAAMERQLISMKVKYQSLKKQNVFNREQMQRMKLQIATLLQMKGSQTEFEQQERLLAMLEQKNGEIKHLLGEIRNLEKFKNLYDSMESKPSVDSGTLEDNTYYTDLLQMKLDNLNKEIESTKGELSIQRMKALFESQRALDIERKLFANERCLQLSESENMKLRAKLDELKLKYEPEETVEVPVLKKRREVLPVDITTAKDACVNNSALGGEVYRLPPQKEETQSCPNSLEDNNLQLEKSVSIYTPVVSLSPHKNLPVDMQLKKEKKCVKLIGVPADAEALSERSGNTPNSPRLAAESKLQTEVKEGKETSSKLEKETCKKLHPILYVSSKSTPETQCPQQ
notes: also called ^mChSpindly^∆RV; source: E. coli BL21 CodonPlus, purified (HisTrap, Resource Q, Superdex 200); not shown: mCherry, N-terminal, kept
With B3 the “stoichiometry N” value [2] was 2.

B4: mCherry-tagged full-length Spindly (^mChSpindly^FL), Q96EA4 1-605 (natural protein)
chain: T1 chain
B4 gave a stoichiometry N [3] of 2.

B5: full-length Spindly without mCherry tag, Q96EA4 1-605 (natural protein)
chain: T1 chain
B5 showed a stoichiometry N [4] of 2.

B6: ^mChSpindly^CC2* (R295E-K297E) (natural protein, human, UniProt Q96EA4 1-605, looked up)
chain: T1 chain with R295E, K297E
notes: as for B1
For B6, the “stoichiometry N” value [2] was 2.

B7: Spindly^1–275 (domain or fragment, human, UniProt Q96EA4 1-275, looked up)
chain: MEADIITNLRCRLKEAEEERLKAAQYGLQLVESQNELQNQLDKCRNEMMTMTESYEQEKYTLQREVELKSRMLESLSCECEAIKQQQKMHLEKLEEQLSRSHGQEVNELKTKIEKLKVELDEARLSEKQLKHQVDHQKELLSCKSEELRVMSERVQESMSSEMLALQIELTEMESMKTTLKEEVNELQYRQEQLELLITNLMRQVDRLKEEKEEREKEAVSYYNALEKARVANQDLQVQLDQALQQALDPNSKGNSLFAEVEDRRAAMERQLISM
notes: source: TnAO38 insect cells (baculovirus), purified (HisTrap, Resource Q, Superdex 200)
For B7, the “stoichiometry N” value [5] was 2 and 4.

B8: Spindly^1–100 (domain or fragment, human, UniProt Q96EA4 1-100, looked up)
chain: MEADIITNLRCRLKEAEEERLKAAQYGLQLVESQNELQNQLDKCRNEMMTMTESYEQEKYTLQREVELKSRMLESLSCECEAIKQQQKMHLEKLEEQLSR
notes: selenomethionine protein was also made for phasing; source: E. coli BL21 (DE3), purified (Ni-Sepharose, ion exchange, S200 SEC); not shown: His6, N-terminal, cleaved
With B8 the “stoichiometry N” value [6] was 2.

B9: Spindly^1–250 (domain or fragment, human, UniProt Q96EA4 1-250, looked up)
chain: MEADIITNLRCRLKEAEEERLKAAQYGLQLVESQNELQNQLDKCRNEMMTMTESYEQEKYTLQREVELKSRMLESLSCECEAIKQQQKMHLEKLEEQLSRSHGQEVNELKTKIEKLKVELDEARLSEKQLKHQVDHQKELLSCKSEELRVMSERVQESMSSEMLALQIELTEMESMKTTLKEEVNELQYRQEQLELLITNLMRQVDRLKEEKEEREKEAVSYYNALEKARVANQDLQVQLDQALQQALDP
notes: also called CC1; source: TnAO38 insect cells (baculovirus), purified (HisTrap, Resource Q, Superdex 200)
B9: binds (Spindly^250–605).
